# Test results taken from US20070212679.
# T1: human GST-E1 (Boston Biochem), P22314
# T1 chain: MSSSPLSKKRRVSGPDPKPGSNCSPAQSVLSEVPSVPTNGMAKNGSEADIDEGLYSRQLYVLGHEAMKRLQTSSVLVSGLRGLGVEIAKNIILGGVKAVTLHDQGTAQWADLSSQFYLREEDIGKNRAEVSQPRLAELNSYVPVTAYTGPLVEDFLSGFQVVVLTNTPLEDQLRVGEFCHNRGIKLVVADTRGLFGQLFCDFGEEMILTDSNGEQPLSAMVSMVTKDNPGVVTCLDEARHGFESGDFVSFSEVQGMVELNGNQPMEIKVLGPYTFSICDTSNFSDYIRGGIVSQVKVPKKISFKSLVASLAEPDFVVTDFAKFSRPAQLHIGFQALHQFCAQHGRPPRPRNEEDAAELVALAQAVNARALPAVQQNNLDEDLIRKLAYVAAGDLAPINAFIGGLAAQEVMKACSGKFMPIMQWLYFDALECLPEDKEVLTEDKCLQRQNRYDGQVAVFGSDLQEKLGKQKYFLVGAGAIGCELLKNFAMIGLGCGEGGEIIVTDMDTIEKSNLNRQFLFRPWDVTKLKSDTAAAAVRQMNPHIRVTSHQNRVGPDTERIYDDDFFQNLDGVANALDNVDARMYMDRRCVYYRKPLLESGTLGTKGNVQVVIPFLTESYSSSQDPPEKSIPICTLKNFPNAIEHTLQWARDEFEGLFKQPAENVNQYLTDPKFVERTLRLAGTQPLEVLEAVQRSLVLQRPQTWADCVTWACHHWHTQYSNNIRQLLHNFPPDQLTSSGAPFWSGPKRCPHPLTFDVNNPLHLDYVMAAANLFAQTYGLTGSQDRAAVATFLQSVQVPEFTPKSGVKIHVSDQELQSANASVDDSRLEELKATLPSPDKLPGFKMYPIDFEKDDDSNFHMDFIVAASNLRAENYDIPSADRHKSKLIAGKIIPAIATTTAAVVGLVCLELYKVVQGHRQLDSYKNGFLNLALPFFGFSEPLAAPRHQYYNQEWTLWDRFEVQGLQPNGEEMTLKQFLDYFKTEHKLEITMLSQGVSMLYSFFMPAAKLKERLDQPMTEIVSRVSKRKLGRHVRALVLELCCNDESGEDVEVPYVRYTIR
# Target: T1, human GST-E1 (Boston Biochem), P22314
protein,measurement,value
"His6-Parkin (full-length human Parkin fused to an N-terminal histidine tag, from E. coli, refolded) (protein) IYICTIIIIISSGLVPRGSGMKETAAAKFERQHMDSPDLGTDDDDKAMADIGSAATMIVFVRFNSSHGFPVEVDSDTSIFQLKEVVAKRQGVPADQLRVIFAGKELRNDWTVQNCDLDQQSIVHIVQRPWRKGQEMNATGGDDPRNAAGGCEREPQSLTRVDLSSSVLPGDSVGLAVILHTDSRKDSPPAGSPAGRSIYNSFYVYCKGPCQRVQPGKLRVQCSTCRQATLTLTQGPSCWDDVLIPNRMSGECQSPHCPGTSAEFFFKCGAHPTSDKETPVALHLIATNSRNITCITCTDVRSPVLVFQCNSRHVICLDCFHLYCVTRLNDRQFVHDPQLGYSLPCVAGCPNSLIKELHHFRILGEEQYNRYQQYGAEECVLQMGGVLCPRPGCGAGLLPEPDQRKVTCEGGNGLGCGFAFCRECKEAYHEGECSAVFEASGTTTQAYRVDERAAEQARWEAASKETIKKTTKPCPRCHVPVEKNGGCMHMKCPQPQCRLEWCWNCGCEWNRVCMGDHWFDV",ubiquitination of Parkin in the absence of UbcH7 (biotin-ubiquitin detected on blot with NeutrAvidin-HRP),some reaction product was seen in the absence of UbcH7 when Parkin was incubated with E1 and ubiquitin for 90 minutes
